Reference: the supplement of paper PMC9233669
Fewer inactive variants are shown than the library holds.

Key:
[1] = test system: biotinyl-Trp-oxazolone; experiment: self-aminoacylation, catalytic enhancement (BWO) (fold over background); higher = more active; k-Seq, kA / k0A0; sequences stand for … in GGGAAUGGAUCCACAUCUACGAAUUC…UUCACUGCAGACUUGACGAAGCUG
Outline: (§1)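 Mutagenized RNA pools with a 21-nt variable region (0.43 μM) were reacted with each biotinyl-aminoacyl-oxazolone at 2–1250 μM for 90 minutes at room temperature, in 50 μL HEPES/NaCl/KCl/MgCl2/CaCl2 buffer containing 5% acetonitrile at pH 6.9–7.0. RNA captured on streptavidin was quantified by triplicate qPCR and by Illumina sequencing. The fraction reacted for each sequence was fit to a pseudo-first-order model with bootstrapping, and catalytic enhancement is the median kA divided by the uncatalyzed rate, taken as the low-activity peak of a bimodal Gaussian fit.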

[2] = test system: biotinyl-Phe-oxazolone; experiment: self-aminoacylation, catalytic enhancement (BFO) (fold over background); higher = more active; k-Seq, kA / k0A0; sequences stand for … in GGGAAUGGAUCCACAUCUACGAAUUC…UUCACUGCAGACUUGACGAAGCUG
Outline: as §1

Row | Sequence | self-aminoacylation [1] | self-aminoacylation [2]
1 | CUACGUCAAAAAAUCGGUCUG [Fam1A.1 aminoacylation ribozyme variant] | 2.35 | 5.5
2 | CAAAUUCAAACAAUCGGUCUG [Fam1A.1 aminoacylation ribozyme variant] | 3.94 | 6.39
3 | AAGGUUGCUAAUAGUCGCAGG [Fam3.1 aminoacylation ribozyme variant] | 2.28 | 3.23
4 | AAGUUUGCGAAUAUUCGCAAG [Fam3.1 aminoacylation ribozyme variant] | 2.71 | –
5 | CGACUUCAAACAACCGGUCUG [Fam1A.1 aminoacylation ribozyme variant] | 2.13 | –
6 | CUACUUCAAUGAAUCGGUCUG [Fam1A.1 aminoacylation ribozyme variant] | 5.68 | 7.24
7 | CCACACUUCAAUGAAUCGGUC [Fam1B.1 aminoacylation ribozyme variant] | 10.3 | 14.4
8 | CCACACUUCAAUCGAUCGGUC [Fam1B.1 aminoacylation ribozyme variant] | 2.43 | 2.48
9 | AGGUGUGCUAAUAGUCGCAAG [Fam3.1 aminoacylation ribozyme variant] | 2.52 | 5.87
10 | CUCCUUCAAACAAUCAGUCUG [Fam1A.1 aminoacylation ribozyme variant] | 7.05 | 20
11 | ACACACUUCAAGCAAUCGGUC [Fam1B.1 aminoacylation ribozyme variant] | 13.1 | 27.1
12 | CAACUUCAAACAAUCGGUCUC [Fam1A.1 aminoacylation ribozyme variant] | 37.7 | 75.3
13 | AAUCACCUAGGUCAUAGGGUG [Fam2.2 aminoacylation ribozyme variant] | 2.15 | –
14 | CGGCACUUCAAGCAAUCGGUC [Fam1B.1 aminoacylation ribozyme variant] | 20.1 | 34.7
15 | AAGUUUGCUAGUAGUCGCAAA [Fam3.1 aminoacylation ribozyme variant] | 2.13 | –
16 | CUGCACUUCAAGCAAUCGGUC [Fam1B.1 aminoacylation ribozyme variant] | 28.1 | 52
17 | CCUCACUUCAAGAAAUCGGUC [Fam1B.1 aminoacylation ribozyme variant] | 7.71 | 11
18 | CUACUUCAAACAAUCGGUGUG [Fam1A.1 aminoacylation ribozyme variant] | 5.78 | 10.2
19 | CUACUUCAAACAAUCGGUCUC [Fam1A.1 aminoacylation ribozyme variant] | 24.6 | 52.6
20 | CUAAUUCAAACAAUCGGUCUG [Fam1A.1 aminoacylation ribozyme variant] | 3.52 | 7.13
21 | CCACACUUCAAAUAAUCGGUC [Fam1B.1 aminoacylation ribozyme variant] | 13.7 | 23.8
22 | CUACACUUCAACCAAUCGGUC [Fam1B.1 aminoacylation ribozyme variant] | 30 | 59.2
23 | CUACUUCAAACAAUCGGUCCU [Fam1A.1 aminoacylation ribozyme variant] | 3.25 | 6.8
24 | CCAAACUUCAAGCAAUCGGUU [Fam1B.1 aminoacylation ribozyme variant] | 4.36 | 5.01
25 | AAGAUUGCUAAUAGCCGCAAG [Fam3.1 aminoacylation ribozyme variant] | 2.47 | –

Row | Sequence | self-aminoacylation [1] | self-aminoacylation [2]
26 | CCGCACUUCAAGAAAUCGGUC [Fam1B.1 aminoacylation ribozyme variant] | 10.3 | 12.2
27 | AAGUAUGCUAAUAGUCGCACG [Fam3.1 aminoacylation ribozyme variant] | 2.03 | –
28 | CUACACUUCAAGGAAUCGGUC [Fam1B.1 aminoacylation ribozyme variant] | 4.18 | 3.89
29 | CAACCCUUCAAGCAAUCGGUC [Fam1B.1 aminoacylation ribozyme variant] | 2.72 | 2.9
30 | CUACUUCAAACAAUCAGUCAG [Fam1A.1 aminoacylation ribozyme variant] | 2.43 | 6.15
31 | CAACUUCAAACAAUCGGUCCG [Fam1A.1 aminoacylation ribozyme variant] | 4.86 | 5.44
32 | CCAUACUUCAAUCAAUCGGUC [Fam1B.1 aminoacylation ribozyme variant] | 15.9 | 31.2
33 | AUACAUCAAACAAUCGGUCUG [Fam1A.1 aminoacylation ribozyme variant] | 2.68 | 4.05
34 | UUACUCCAAACAAUCGGUCUG [Fam1A.1 aminoacylation ribozyme variant] | 2.69 | 3.73
35 | AAGUUCUCUAAUAGUCGCAAG [Fam3.1 aminoacylation ribozyme variant] | 2.07 | 3.34
36 | AAGUUGGCUAAUAGUCUCAAG [Fam3.1 aminoacylation ribozyme variant] | 2.27 | –
37 | AUGUUUGCUAAUAGUCGCAAG [Fam3.1 aminoacylation ribozyme variant] | 4.22 | 12.9
38 | CCAAACUUCAACCAAUCGGUC [Fam1B.1 aminoacylation ribozyme variant] | 27.5 | 43.8
39 | AUUCACCUCGGUCAUCAGGUG [Fam2.2 aminoacylation ribozyme variant] | 2.02 | 4.3
40 | ACGUUUGCUAAUAGUCGCAAG [Fam3.1 aminoacylation ribozyme variant] | 3.66 | 9.06
41 | AUUACGCUGGUCAUCGAGCGA [Fam2.1 aminoacylation ribozyme variant] | 2.16 | –
42 | CUACUUCAAAUAAUCGGUAUG [Fam1A.1 aminoacylation ribozyme variant] | 3.96 | 7.28
43 | CUAUUUCAAACAAUCGGCCUG [Fam1A.1 aminoacylation ribozyme variant] | 6.15 | 6.32
44 | AUUGACCUAGGUCAUCGGGAG [Fam2.2 aminoacylation ribozyme variant] | 2.04 | 3.29
45 | CUCCUUCAAACAAUCGGUGUG [Fam1A.1 aminoacylation ribozyme variant] | 6.8 | 8.49
46 | AAGCUUGAUAAUAGUCGCAAG [Fam3.1 aminoacylation ribozyme variant] | 2.02 | 2.72
47 | GUACUUUAAACAAUCGGUCUG [Fam1A.1 aminoacylation ribozyme variant] | 2.08 | –
48 | AAUCACCUAGGUCAUCAGGUG [Fam2.2 aminoacylation ribozyme variant] | 2.18 | –
49 | AUUCACCUAGGUUAUCAGGUG [Fam2.2 aminoacylation ribozyme variant] | 2.12 | –
